This passage reports Kd results from publication PMC2888147 (The Biochemical journal, 2010).

Test [1] deals with T1, His-tagged KCNQ1 full-length C-terminus (Q1Cf, 349-676) (human, UniProt P51787 349-676).
T1 sequence (looked up): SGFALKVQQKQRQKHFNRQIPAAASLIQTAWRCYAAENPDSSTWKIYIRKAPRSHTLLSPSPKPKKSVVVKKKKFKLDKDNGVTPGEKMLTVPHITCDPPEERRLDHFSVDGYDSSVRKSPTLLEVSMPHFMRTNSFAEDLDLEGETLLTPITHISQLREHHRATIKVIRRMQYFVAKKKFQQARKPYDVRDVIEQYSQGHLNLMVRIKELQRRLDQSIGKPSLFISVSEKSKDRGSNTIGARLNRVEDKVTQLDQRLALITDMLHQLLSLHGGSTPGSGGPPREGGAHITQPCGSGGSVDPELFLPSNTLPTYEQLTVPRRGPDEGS
In words: SPR.

Test [2] deals with T2, His-tagged KCNQ1 C-terminal fragment Q1C1 (349-480) (human, UniProt P51787 349-480).
T2 sequence (looked up): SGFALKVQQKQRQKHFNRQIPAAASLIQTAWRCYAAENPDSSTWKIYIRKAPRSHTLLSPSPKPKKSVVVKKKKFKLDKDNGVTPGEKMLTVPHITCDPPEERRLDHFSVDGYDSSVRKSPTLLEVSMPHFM
In words: SPR.

B1: His-tagged KCNE1 C-terminus (E1C) (domain or fragment)
chain: not shown
With B1, the results for the Kd in test [1] and in test [2] were 3.2 ± 0.7 µM and 4.6 ± 1.4 µM, respectively.
